One block for each substance: values may come before it.
Columns and labels:
[1] = system: CaM isoforms 2, 4, and 6 from Arabidopsis; assay: Slot blot: synthetic peptides probed with 35S-labeled AtCaM isoforms; assay type: binding, Arabidopsis thaliana
Description: Soluble and insoluble proteins from the induced and un-induced cultures were separated on 12% SDS-polyacrylamide gels and blotted as described above. To detect the binding of the expressed proteins to ^35S-labeled AtCaM, duplicate blots were blocked for 15 min in TBS (50 mM Tris-HCl, pH 7.5, 150 mM NaCl) containing 5 mM of either CaCl2 or EGTA and 1% nonfat dry milk. The blots were then incubated for 12 h in a mixture of ^35S-labeled AtCaM isoforms at […] in the same buffers as above. The filters were then washed with the corresponding buffer and dried before exposing to X-ray film. Binding to biotinylated CaM was detected by blocking the blots in 3% gelatin in TBS/Ca/Mg or TBS/EGTA/Mg (50 mM Tris-HCl, pH 7.5, 50 mM MgCl2, 150 mM NaCl, and 5 mM of either CaCl2 or EGTA) at 30° C. […] The blots were then incubated in Vectastain ABC.HRP in TBS/Ca/Mg or TBS/EGTA/Mg for 30 min, washed 3 times, 10 min each, with the above buffer and the CaM-binding proteins were detected colorimetrically in a substrate solution (0.8 mg/ml diaminobenzidine, 0.4 mg/ml NiCl2, and 0.009% H2O2 in 100 mM Tris-HCl, pH 7.5). […]
The interaction between synthetic peptides and AtCaM isoforms was analyzed by applying synthetic peptides to a nitrocellulose membrane in a slot blot apparatus, and incubating the membrane individually with ^35S-labeled AtCaM isoforms using the method described above.

35S-labeled AtCaM = assay: Blot overlay of bacterially expressed maize NPG1 fusion proteins with 35S-CaM; assay type: binding, Arabidopsis thaliana; settings: in the presence of Ca2+
Description: The 1.2-kb cDNA insert (named P3) containing the coding region for 242 amino acids in the carboxyl-terminal region was cloned in-frame into a pET28b expression vector. For mapping the CaM-binding domain, several truncated constructs were prepared in a pET vector. The P3 cDNA in pET28 was digested with either NcoI or BamHI to release a 168- or 717-bp fragment corresponding to the 5′ end of the cDNA. The NcoI and BamHI fragments were cloned into pET28b vector digested with the respective enzymes to generate P3/NcoI and P3/BamHI clones. The P3 clones lacking either NcoI or BamHI fragments were religated to generate PΔNcoI and PΔBamHI expression clones. […]
Soluble and insoluble proteins from the induced and un-induced cultures were separated on 12% SDS-polyacrylamide gels and blotted as described above. […] Binding to biotinylated CaM was detected by blocking the blots in 3% gelatin in TBS/Ca/Mg or TBS/EGTA/Mg (50 mM Tris-HCl, pH 7.5, 50 mM MgCl2, 150 mM NaCl, and 5 mM of either CaCl2 or EGTA) at 30° C. […] The blots were then incubated in Vectastain ABC.HRP in TBS/Ca/Mg or TBS/EGTA/Mg for 30 min, washed 3 times, 10 min each, with the above buffer and the CaM-binding proteins were detected colorimetrically in a substrate solution (0.8 mg/ml diaminobenzidine, 0.4 mg/ml NiCl2, and 0.009% H2O2 in 100 mM Tris-HCl, pH 7.5).

CaM6 = molecular target: T1, CaM6 (Arabidopsis thaliana, UniProt Q03509); assay: Tryptophan fluorescence spectroscopy of peptide with CaM; assay type: binding; settings: equimolar peptide and CaM6, excitation 290 nm; free peptide about 350 nm
T1 construct: made in house; host or cells: E. coli BL21(DE3)
Description: (§1) The tryptophan fluorescence spectra of free and CaM-bound synthetic peptide were recorded with a Hitachi-F-3010/4010 spectrofluorimeter as described in Reddy et al. (1996) supra. NPG1 peptide and AtCaMs (166 pmol each) were mixed in a […] reaction volume. The tryptophan residue in free and CaM-bound synthetic NPG1 peptide was excited at 290 nm and the emission wavelength values were recorded from 300 to 400 nm with a bandwidth of 5 nm in a 5-mm quartz cell at 25° C. Samples were incubated for 1 h at 25° C. prior to spectroscopic measurements. Corrections were made for the protein and solvent blanks.

bovine CaM [2] = molecular target: T2, bovine CaM (Bos taurus, UniProt P62157); assay: as above; assay type: binding; settings: equimolar peptide and bovine CaM, excitation 290 nm; free peptide about 350 nm
T2 construct: purchased Calbiochem-Novabiochem (San Diego, Calif.)
Description: as §1

CaM4 = molecular target: T3, CaM4 (Arabidopsis thaliana, UniProt P0DH96); assay: as above; assay type: binding
T3 construct: made in house; host or cells: E. coli BL21(DE3)
Description: as §1

CaM2 = molecular target: T4, CaM2 (Arabidopsis thaliana, UniProt P0DH97); assay: as above; assay type: binding; settings: equimolar peptide and CaM2, excitation 290 nm; free peptide about 350 nm
T4 construct: made in house; host or cells: E. coli BL21(DE3)
Description: as §1

[3] = system: AtCaM isoforms (CaM2, CaM4, CaM6); assay: Calmodulin electrophoretic mobility shift assay in 4 M urea gels; assay type: binding, Arabidopsis thaliana
Description: (§2) The interaction of CaM with synthetic peptide was also analyzed using electrophoretic mobility shift of CaM in the presence of a synthetic peptide. Each of the AtCaM isoforms and bovine CaM (166 pmol) were incubated with increasing concentrations of maize NPG1-synthetic peptide (166, 332, and 664 pmol) in the presence of 4 M urea, in a buffer containing 100 mM Tris-HCl, pH 7.5, and 1 mM CaCl2 or 5 mM EGTA at room temperature for 1 h in a total volume of […]. Then, […] of sample buffer (0.375 M Tris-HCl, pH 6.8, 30% glycerol, and 0.023% bromphenol blue) was added to the samples and the mixture was electrophoresed in 12% polyacrylamide gels containing 4 M urea or 7.5% glycerol, 0.375 M Tris-HCl, pH 8.8, and either 1 mM CaCl2 or 5 mM EGTA. The gels were run at a constant voltage of 25 V per gel in an electrode buffer (25 mM Tris-HCl, pH 8.3, 192 mM glycine, and either 1 mM CaCl2 or 5 mM EGTA). The gels were stained with 0.25% Coomassie Blue R-250 in 7.5% acetic acid and 50% methanol for 1 h and then destained with 30% methanol and 7% acetic acid.

bovine CaM [4] = molecular target: T2, bovine CaM; assay: Binding of synthetic peptide to bovine CaM; settings: 'at concentrations as low as'
bovine CaM [5] = molecular target: T2, bovine CaM; assay: Calmodulin electrophoretic mobility shift assay in 4 M urea gels; assay type: binding
Description: as §2

CaM = CaM binding of truncated Arabidopsis NPG1
Excerpt: To map the CaM-binding domain, a truncated version (aa 448-496 of SEQ ID NO:10) of Arabidopsis NPG1 which contains a putative calmodulin-binding domain was expressed in E. coli and tested for its ability to bind CaM. […] The CBD was further mapped to an eighteen amino acid stretch (aa 464-481) by using synthetic peptides in a gel-shift assay.

[6] = molar ratio 1:1 (peptide:CaM), CaCl2, 4 M urea
[7] = molar ratio 2:1 and 4:1 (peptide:CaM), CaCl2, 4 M urea

- binding to the labeled CaM isoforms ([1]; 35S-labeled AtCaM isoforms, slot blot): Neither MP2 nor BSA showed any binding
Substance: AKLDQGSLLRVKA-KLKVAQSSPM (AKLDQGSLLRVKAKLKVAQSSPM) [MP-2]

- binding to 35S-CaM (35S-labeled AtCaM): produced CaM-binding peptide
Substance: P3/NcoI: truncated P3 fusion protein (16 kDa) from the 168-bp NcoI fragment at the 5′ end of the cDNA (GGSVSKGWRLLALILSAQQRFSEAEVATDAALDETAKLDQGSLLRVKAKLKVAQSSP; left off: small tags and cut ends)

Substance: VSKGWRLLALILSAQQRF [MP-1]
- wavelength of peak emission (CaM6): about 315 nm
- wavelength of peak emission (bovine CaM [2]): about 315 nm
- wavelength of peak emission (CaM4; equimolar peptide and CaM4, excitation 290 nm, free peptide about 350 nm): about 315 nm
- fluorescence intensity (CaM4; in the presence of CaM4, free peptide about 0.1): about 4.5
- wavelength of peak emission (CaM2): about 315 nm
- change in CaM mobility ([3]; in the presence of EGTA): No change in CaM mobility
- CaM showing a mobility shift [3, 6]: about 50%
- CaM migrating as peptide complex [3, 7]: the entire CaM migrated as a complex
- lowest amount of synthetic peptide that bound CaM (bovine CaM [4]): 0.5 µg
- change in CaM mobility (bovine CaM [5]; in the presence of EGTA): No change in CaM mobility
- CaM showing a mobility shift (bovine CaM [5]; [6]): about 50%
- CaM migrating as peptide complex (bovine CaM [5]; [7]): the entire CaM migrated as a complex
- lowest amount of synthetic peptide that bound CaM ([1]; CaM isoforms 2, 4, and 6, 'at concentrations as low as'): 0.5 µg

Substance: truncated version (aa 448-496 of SEQ ID NO:10): truncated Arabidopsis NPG1 containing a putative calmodulin-binding domain, expressed in E. coli (AASRYAKEFIDATGGSVLKGWRFLALVLSAQQRFSEAEVVTDAALDETA; listed as Arabidopsis thaliana)
- ability to bind CaM (CaM): bound CaM in a manner similar to the full-length protein
